Source: patent publication WO2004044204A2 (dated 2004)

B1: VHH ALZ L1-3 (VHH)
VHH: EVQLQASGGGLVQAGGSLRLSCSASASTTFSMNTMAWHRQAPGKQRSLVALIGATHSINYEDSVKGRFTISRDNAKNTVYLQMSSLKPEDTAVYYCNDWYWQMKGGSWGQGTQVTVSS
notes: Alpaca VHH, produced soluble in E. coli HB2151 from pHEN-1 and tested as culture supernatant; It was detected with anti-c-myc 9E10; also called VHH ALZ Ll-3; VHH-L1-3
B2: VHH ALZ L35 (VHH)
VHH: EVQLQASGGGLVQAGGSLRLSCAASGSTFSINVIGWYRQAPGKQRELVAGISRSGNTNYADSVEGRFTISRDYAKNTVYLQMNSLKPEDTAVYYCHSKTYLLHMYWGQGTQVTVSS
notes: Alpaca VHH, produced soluble in E. coli HB2151 from pHEN-1 and tested as culture supernatant; It was detected with anti-c-myc 9E10; also called VHH-L35; VHH L35
B3: VHH ALZ V31-1 (VHH)
VHH: EVQLQASGGGSVQPGGSLRLSCAASGFIFGWSTMSWVRQAPGKGLEWVSTISGGGSATTYTDSVKGRFTISRDRAKNTLYLQMNSLKPEDTAIYYCNADVSTGFRYQRKDYWGRGTQVTVSS
notes: Alpaca VHH, produced soluble in E. coli HB2151 from pHEN-1; It was detected with anti-c-myc 9E10; also called VHH-V31-1; VHH V31-1

Assays:
[1] = target: T1, β-amyloid peptide 1-42; experiment: competition ELISA
T1 construct: Synthesised on solid phase; It was coated on plates or used in solution; one result is told for its fibrillar form; also called Aβ42; peptide Aβ42

[2] = target: T1, β-amyloid peptide 1-42; experiment: ELISA with overlapping peptides that are fragments of Aβ42; the affinity is told for the carboxy terminal part

| Binder | Kd [1] | Kd [2] |
| --- | --- | --- |
| B1 | 60 nM | – |
| B2 | 30 nM | – |
| B3 | – | ~10 nM |
